The source of these data is patent CN113444180A (SHANGHAI SINOBAY BIO TECH CO LTD, dated 2021).

Assay [1] addresses T1, AXL on CHO-AXL细胞 (human, UniProt P30530 26-894).
T1 construct: whole, on cells; the cell line itself is only called CHO-AXL
T1 sequence (looked up): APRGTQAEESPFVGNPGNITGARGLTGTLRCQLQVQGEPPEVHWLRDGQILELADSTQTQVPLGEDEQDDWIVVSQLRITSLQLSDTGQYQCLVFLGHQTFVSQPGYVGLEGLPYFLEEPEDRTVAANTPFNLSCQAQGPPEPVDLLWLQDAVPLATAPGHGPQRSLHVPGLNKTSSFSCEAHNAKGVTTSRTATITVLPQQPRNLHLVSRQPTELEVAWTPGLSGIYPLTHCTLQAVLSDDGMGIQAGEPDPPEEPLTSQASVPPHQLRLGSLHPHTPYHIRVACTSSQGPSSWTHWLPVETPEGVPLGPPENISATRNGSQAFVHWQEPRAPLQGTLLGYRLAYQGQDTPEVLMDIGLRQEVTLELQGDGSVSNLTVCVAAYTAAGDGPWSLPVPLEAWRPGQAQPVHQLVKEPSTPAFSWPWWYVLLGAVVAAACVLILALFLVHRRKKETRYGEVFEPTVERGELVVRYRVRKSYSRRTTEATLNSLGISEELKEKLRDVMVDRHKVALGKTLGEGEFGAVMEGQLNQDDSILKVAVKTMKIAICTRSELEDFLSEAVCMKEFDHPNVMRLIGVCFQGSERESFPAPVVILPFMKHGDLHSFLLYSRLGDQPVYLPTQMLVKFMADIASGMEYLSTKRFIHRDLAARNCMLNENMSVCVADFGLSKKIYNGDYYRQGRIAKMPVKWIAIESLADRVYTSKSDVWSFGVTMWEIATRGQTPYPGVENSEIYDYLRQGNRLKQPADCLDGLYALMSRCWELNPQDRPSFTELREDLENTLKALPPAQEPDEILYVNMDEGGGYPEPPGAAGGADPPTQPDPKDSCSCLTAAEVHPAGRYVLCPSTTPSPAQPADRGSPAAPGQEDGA
The experiment in a line: flow cytometry on CHO-AXL cells, pH6.0 against pH7.4. For orientation: In flow cytometry, cells or beads pass a laser one at a time.

In assay [2] the target is T1, AXL on CHO-AXL细胞. The experiment in a line: flow cytometry on CHO-AXL cells, acidic condition pH6.0, reference CCT301-38.

B1: Hu001-5抗体 (full-length human IgG1 kappa) (antibody, V domains shown)
VH: QVQLLESGGGVVQPGRSLRLSCAASGFTFSSYGMHWVRQAPGKGLEWVAVISYDGSNKYYADSVKGRFTISRDNSKNTLYLQMNSLRAEDTAVYYCAKDQVLAPVGGGLFDYWGQGTLVTVSA
VL: DIQLTQSPSSLSASVGDRVTITCRASQSISTYLNWYQQKPGKAPESLIFAASSLASGVPSRFSGSGSGTDFTLTISSLQPEDFATYYCQQSYSTPRTFGPGTKVEIK
Take B1: the “平均荧光强度 (MFI), acidic condition over neutral condition” value with AXL on CHO-AXL细胞 [1] was ~1.5 倍 (fold). For the same molecule, the “平均荧光强度 (MFI), fold over positive control CCT301-38” value with AXL on CHO-AXL细胞 [2] was ~4 倍 (fold).

B2: Hu001-11抗体 (full-length human IgG1 kappa) (antibody, V domains shown)
VH: QVQLLESGGGVVQPGRSLRLSCAASGFTFSSYGMHWVRQAPGKGLEWVAVISYDGSNKYYADSVKGRFTISRDNSKNTLYLQMNSLRAEDTAVYYCAKYGSSGPYWYFDLWGQGTLVTVSA
VL: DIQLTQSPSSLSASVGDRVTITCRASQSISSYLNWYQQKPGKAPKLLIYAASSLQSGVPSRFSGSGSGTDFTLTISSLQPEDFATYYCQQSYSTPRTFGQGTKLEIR
B2: the “平均荧光强度 (MFI), acidic condition over neutral condition” value with AXL on CHO-AXL细胞 [1] was ~1.5 倍 (fold). The “平均荧光强度 (MFI), fold over positive control CCT301-38” value in the assay with AXL on CHO-AXL细胞 [2] is ~4 倍 (fold).
